Data: paper PMC2756588

T1: Abp1, P15891
T1 sequence (P15891 535-592, looked up): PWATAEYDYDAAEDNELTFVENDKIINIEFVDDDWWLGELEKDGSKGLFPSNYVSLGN

T2: Bbc1, P47068
T2 sequence (P47068 1-78, looked up): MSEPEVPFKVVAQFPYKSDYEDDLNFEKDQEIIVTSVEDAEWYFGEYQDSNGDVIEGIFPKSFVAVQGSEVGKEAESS

T3: Boi1, P38041
T3 sequence (P38041 1-86, looked up): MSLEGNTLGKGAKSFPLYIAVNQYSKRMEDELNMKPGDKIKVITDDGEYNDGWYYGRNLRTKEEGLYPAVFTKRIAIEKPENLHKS

T4: Boi2, P39969
T4 sequence (P39969 32-116, looked up): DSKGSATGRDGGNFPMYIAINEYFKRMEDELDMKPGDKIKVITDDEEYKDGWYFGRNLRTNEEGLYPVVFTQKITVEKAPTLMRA

T5: Bud14, P27637
T5 sequence (P27637 247-328, looked up): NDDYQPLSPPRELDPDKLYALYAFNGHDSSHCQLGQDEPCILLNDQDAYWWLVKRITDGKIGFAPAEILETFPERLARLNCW

T6: Bzz1-1, P38822
T6 sequence (P38822 478-572, looked up): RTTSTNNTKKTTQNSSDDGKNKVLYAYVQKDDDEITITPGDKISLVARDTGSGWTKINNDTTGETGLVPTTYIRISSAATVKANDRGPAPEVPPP

T7: Bzz1-2, P38822
T7 sequence (P38822 568-633, looked up): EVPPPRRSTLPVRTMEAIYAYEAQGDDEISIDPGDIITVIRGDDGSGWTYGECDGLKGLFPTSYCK

T8: Cdc25, P04821
T8 sequence (P04821 50-136, looked up): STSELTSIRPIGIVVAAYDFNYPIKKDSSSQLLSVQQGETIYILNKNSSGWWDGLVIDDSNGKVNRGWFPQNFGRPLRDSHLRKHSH

T9: Cyk3, Q07533
T9 sequence (Q07533 1-83, looked up): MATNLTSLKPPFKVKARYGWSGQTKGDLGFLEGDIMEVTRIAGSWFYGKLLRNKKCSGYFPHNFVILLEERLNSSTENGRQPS

T10: Fus1, P11710
T10 sequence (P11710 432-512, looked up): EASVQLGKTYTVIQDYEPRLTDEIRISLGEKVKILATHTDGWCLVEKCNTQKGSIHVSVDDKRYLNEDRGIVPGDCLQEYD

T11: Hof1, Q05080
T11 sequence (Q05080 590-669, looked up): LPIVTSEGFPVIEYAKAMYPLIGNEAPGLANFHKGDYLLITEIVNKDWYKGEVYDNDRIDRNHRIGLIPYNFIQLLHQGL

T12: Hse1, P38753
T12 sequence (P38753 208-285, looked up): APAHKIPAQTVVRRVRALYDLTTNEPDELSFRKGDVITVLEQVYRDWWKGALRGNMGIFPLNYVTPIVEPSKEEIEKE

T13: Lsb1, P53281
T13 sequence (P53281 45-122, looked up): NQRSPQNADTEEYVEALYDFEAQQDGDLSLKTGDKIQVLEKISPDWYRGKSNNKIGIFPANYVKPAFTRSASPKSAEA

T14: Lsb3, P43603
T14 sequence (P43603 385-451, looked up): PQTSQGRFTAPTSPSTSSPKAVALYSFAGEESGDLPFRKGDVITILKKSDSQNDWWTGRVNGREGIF

T15: Lsb4, P32793
T15 sequence (P32793 402-468, looked up): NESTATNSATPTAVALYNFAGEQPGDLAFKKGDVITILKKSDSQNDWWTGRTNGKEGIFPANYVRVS

T16: Myo5, Q04439
T16 sequence (Q04439 1072-1160, looked up): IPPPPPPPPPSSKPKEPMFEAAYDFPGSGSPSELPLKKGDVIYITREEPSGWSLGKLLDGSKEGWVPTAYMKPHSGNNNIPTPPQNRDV

T17: Nbp2, Q12163
T17 sequence (Q12163 103-180, looked up): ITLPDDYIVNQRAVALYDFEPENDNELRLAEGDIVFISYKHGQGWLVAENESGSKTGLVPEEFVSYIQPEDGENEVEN

T18: Pex13, P80667
T18 sequence (P80667 295-386, looked up): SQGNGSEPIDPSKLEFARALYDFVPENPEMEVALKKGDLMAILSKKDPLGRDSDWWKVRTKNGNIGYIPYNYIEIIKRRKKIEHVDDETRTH

T19: Pin3, Q06449
T19 sequence (Q06449 53-122, looked up): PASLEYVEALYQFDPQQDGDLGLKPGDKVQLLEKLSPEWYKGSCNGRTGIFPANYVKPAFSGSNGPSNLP

T20: Sla1-2, P32790
T20 sequence (P32790 60-140, looked up): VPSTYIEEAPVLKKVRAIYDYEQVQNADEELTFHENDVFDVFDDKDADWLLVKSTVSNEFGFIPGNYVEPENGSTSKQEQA

T21: Sla1-3, P32790
T21 sequence (P32790 344-424, looked up): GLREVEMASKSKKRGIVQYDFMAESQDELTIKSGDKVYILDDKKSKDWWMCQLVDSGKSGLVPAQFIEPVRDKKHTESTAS


What was measured:
Test in all cases: SPOT array
Abp1, P15891 = target: T1, Abp1, P15891; details: median of control spots 935
Bbc1, P47068 = target: T2, Bbc1, P47068; details: median of control spots 796
Bem1-1, P29366 = details: median of control spots 4282
Bem1-1, P29366, sequence (P29366 55-141): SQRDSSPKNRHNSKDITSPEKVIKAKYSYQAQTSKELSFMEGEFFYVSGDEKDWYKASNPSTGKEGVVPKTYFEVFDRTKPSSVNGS

Bem1-2, P29366 = details: median of control spots 4347
Bem1-2, P29366, sequence (P29366 139-227): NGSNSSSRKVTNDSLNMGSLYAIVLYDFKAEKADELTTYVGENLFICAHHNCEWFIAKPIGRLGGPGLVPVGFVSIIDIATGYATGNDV

Boi1, P38041 = target: T3, Boi1, P38041; details: median of control spots 1162
Boi2, P39969 = target: T4, Boi2, P39969; details: median of control spots 1161
Bud14, P27637 = target: T5, Bud14, P27637; details: median of control spots 956
Bzz1-1, P38822 = target: T6, Bzz1-1, P38822; details: median of control spots 4446
Bzz1-2, P38822 = target: T7, Bzz1-2, P38822; details: median of control spots 4538
Cdc25, P04821 = target: T8, Cdc25, P04821; details: median of control spots 969
Cyk3, Q07533 = target: T9, Cyk3, Q07533; details: median of control spots 1451
Fus1, P11710 = target: T10, Fus1, P11710; details: median of control spots 1200
GST = details: median of control spots 978
Hof1, Q05080 = target: T11, Hof1, Q05080; details: median of control spots 4086
Hse1, P38753 = target: T12, Hse1, P38753; details: median of control spots 1727
Lsb1, P53281 = target: T13, Lsb1, P53281; details: median of control spots 388
Lsb3, P43603 = target: T14, Lsb3, P43603; details: median of control spots 406
Lsb4, P32793 = target: T15, Lsb4, P32793; details: median of control spots 397
Myo3, P36006 = details: median of control spots 468
Myo5, Q04439 = target: T16, Myo5, Q04439; details: median of control spots 471
Nbp2, Q12163 = target: T17, Nbp2, Q12163; details: median of control spots 357
Pex13, P80667 = target: T18, Pex13, P80667; details: median of control spots 1341
Pin3, Q06449 = target: T19, Pin3, Q06449; details: median of control spots 2171
Rvs167, P39743 = details: median of control spots 2707
Rvs167, P39743, sequence (P39743 419-482): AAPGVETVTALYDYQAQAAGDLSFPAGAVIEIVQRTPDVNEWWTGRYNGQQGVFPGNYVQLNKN

Sho1, P40073 = details: median of control spots 1148
Sho1, P40073, sequence (P40073 287-367): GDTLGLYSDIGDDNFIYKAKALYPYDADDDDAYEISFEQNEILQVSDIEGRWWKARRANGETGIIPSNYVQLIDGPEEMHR

Sla1-2, P32790 = target: T20, Sla1-2, P32790; details: median of control spots 712
Sla1-3, P32790 = target: T21, Sla1-3, P32790; details: median of control spots 5475

Binder | SPOT intensity (Abp1, P15891) | SPOT intensity (Bbc1, P47068) | SPOT intensity (Bem1-1, P29366) | SPOT intensity (Bem1-2, P29366) | SPOT intensity (Boi1, P38041) | SPOT intensity (Boi2, P39969) | SPOT intensity (Bud14, P27637) | SPOT intensity (Bzz1-1, P38822) | SPOT intensity (Bzz1-2, P38822) | SPOT intensity (Cdc25, P04821) | SPOT intensity (Cyk3, Q07533) | SPOT intensity (Fus1, P11710) | SPOT intensity (GST) | SPOT intensity (Hof1, Q05080) | SPOT intensity (Hse1, P38753) | SPOT intensity (Lsb1, P53281) | SPOT intensity (Lsb3, P43603) | SPOT intensity (Lsb4, P32793) | SPOT intensity (Myo3, P36006) | SPOT intensity (Myo5, Q04439) | further results
NLPKRKPPKLQGPFS | 202 | 31 | 0 | 81 | 2 | 1 | 12 | 9 | 49 | 53 | 1 | 6 | 1 | 24 | 440 | 0 | 4 | 20 | 42 | 3 | SPOT intensity (Nbp2, Q12163): 56; SPOT intensity (Pex13, P80667): 11; SPOT intensity (Pin3, Q06449): 6; SPOT intensity (Rvs167, P39743): 0; SPOT intensity (Sho1, P40073): 121; SPOT intensity (Sla1-2, P32790): 1; SPOT intensity (Sla1-3, P32790): 213
DRIRMFIRFPKFLLE | 108 | 43 | 0 | 20 | 7 | 3 | 8 | 0 | 0 | 77 | 2 | 39 | 0 | 21 | 17 | 4 | 6 | 7 | 18 | 2 | SPOT intensity (Nbp2, Q12163): 52; SPOT intensity (Pex13, P80667): 38; SPOT intensity (Pin3, Q06449): 30; SPOT intensity (Rvs167, P39743): 0; SPOT intensity (Sho1, P40073): 71; SPOT intensity (Sla1-2, P32790): 0; SPOT intensity (Sla1-3, P32790): 24
KMSRSPPRPPSLKII | 326 | 98 | 0 | 567 | 0 | 0 | 5 | 2 | 350 | 9 | 0 | 0 | 1 | 0 | 14 | 140 | 54 | 88 | 81 | 64 | SPOT intensity (Nbp2, Q12163): 513; SPOT intensity (Pex13, P80667): 124; SPOT intensity (Pin3, Q06449): 69; SPOT intensity (Rvs167, P39743): 67; SPOT intensity (Sho1, P40073): 55; SPOT intensity (Sla1-2, P32790): 8; SPOT intensity (Sla1-3, P32790): 88
FYHRPAPKPPVTKKV | 114 | 45 | 0 | 4210 | 0 | 0 | 0 | 16 | 186 | 0 | 0 | 0 | 0 | 0 | 78 | 63 | 5 | 3 | 37 | 12 | SPOT intensity (Nbp2, Q12163): 314; SPOT intensity (Pex13, P80667): 143; SPOT intensity (Pin3, Q06449): 19; SPOT intensity (Rvs167, P39743): 0; SPOT intensity (Sho1, P40073): 8; SPOT intensity (Sla1-2, P32790): 0; SPOT intensity (Sla1-3, P32790): 2040
